Experimental data published in patent WO2004074491A2 (dated 2004).

Target: T1, K88 pilus protein antigen (also known as the F4 fimbriae adhesin) (Escherichia coli (enterotoxigenic))
T1 construct: Used as ELISA coat and as the ligand amine-coupled to the CM5 SPR chip; also called K88 antigen; K88 pili
Test: SPR (Biacore), K88 pili coupled to a CM5 chip, purified antibody as analyte

T1 sequence (P14190 22-283): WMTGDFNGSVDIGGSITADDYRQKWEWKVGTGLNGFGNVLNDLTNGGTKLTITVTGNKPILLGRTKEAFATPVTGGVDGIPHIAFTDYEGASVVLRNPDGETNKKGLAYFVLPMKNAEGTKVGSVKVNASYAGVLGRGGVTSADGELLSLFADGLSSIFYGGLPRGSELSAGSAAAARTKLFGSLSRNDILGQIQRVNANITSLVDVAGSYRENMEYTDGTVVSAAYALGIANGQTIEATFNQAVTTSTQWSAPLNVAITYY

Row | Binder | Kd
1 | anti-K88 monoclonal IgG1 antibody 36/41 purified from hybridoma cells (antibody) chain 1: EVQLQQSGPELVKTGASVKISCKASDYSLTDYYMHWVKQSHGESLEWIGYINFYNGATNYNQKFKGKATFTVDTSSSTVYMQFNSLTSEDSAVYYCVREALLRNYAMDYWGQGTSVTVSSAKTTPPSVYPLAPGSAAQTNSMVTLGCLVKGYFPEPVTVTWNSGSLSSGVHTFPAVLQSDLYTLSSSVTVPSSTWPSETVTCNVAHPASSTKVDKKIVPRDCGCKPCICTVPEVSSVFIFPPKPKDVLTITLTPKVTCVVVDISKDDPEVQFSWFVDDVEVHTAQTQPREEQFNSTFRSVSELPIMHQDWLNGKEFKCRVNSAAFPAPIEKTISKTKGRPKAPQVYTIPPPKEQMAKDKVSLTCMITDFFPEDITVEWQWNGQPAENYKNTQPIMDTDGSYFVYSKLNVQKSNWEAGNTFTCSVLHEGLHNHHTEKSLSHSPGK chain 2: ENVLTQSPAIMSASPGEKVTMTCRASSSVSSRYLHWYQQKSGASPKLWIYSTSNLASGVPARFSGSGSGTSYSLTISSVEAEDAATYYCQQYSGYPWTFGGGTKLEIKRADAAPTVSIFPPSSEQLTSGGASVVCFLNNFYPKDINVKWKIDGSERQNGVLNSWTDQDSKDSTYSMSSTLTLTKDEYERHNSYTCEATHKTSTSPIVKSFNRNEC | 0.03 nM
2 | plant-produced anti-K88 antibody 36/41 with ER retention signal (corn, pTMR554) (antibody) chain 1: EVQLQQSGPELVKTGASVKISCKASDYSLTDYYMHWVKQSHGESLEWIGYINFYNGATNYNQKFKGKATFTVDTSSSTVYMQFNSLTSEDSAVYYCVREALLRNYAMDYWGQGTSVTVSSAKTTPPSVYPLAPGSAAQTNSMVTLGCLVKGYFPEPVTVTWNSGSLSSGVHTFPAVLQSDLYTLSSSVTVPSSTWPSETVTCNVAHPASSTKVDKKIVPRDCGCKPCICTVPEVSSVFIFPPKPKDVLTITLTPKVTCVVVDISKDDPEVQFSWFVDDVEVHTAQTQPREEQFNSTFRSVSELPIMHQDWLNGKEFKCRVNSAAFPAPIEKTISKTKGRPKAPQVYTIPPPKEQMAKDKVSLTCMITDFFPEDITVEWQWNGQPAENYKNTQPIMDTDGSYFVYSKLNVQKSNWEAGNTFTCSVLHEGLHNHHTEKSLSHSPGKSEKDEL chain 2: ENVLTQSPAIMSASPGEKVTMTCRASSSVSSRYLHWYQQKSGASPKLWIYSTSNLASGVPARFSGSGSGTSYSLTISSVEAEDAATYYCQQYSGYPWTFGGGTKLEIKRADAAPTVSIFPPSSEQLTSGGASVVCFLNNFYPKDINVKWKIDGSERQNGVLNSWTDQDSKDSTYSMSSTLTLTKDEYERHNSYTCEATHKTSTSPIVKSFNRNECSEKDEL | 0.03 nM
